Assay results as given in publication PMC3447989.

Biological target: Treponema denticola superoxide reductase (Treponema denticola (strain ATCC 35405))
Assay: SEC

- stoichiometry N: 2
Substance: Treponema denticola superoxide reductase (enzyme)
